# From article PMC10053325
# Numbering of substitutions follows the chain as printed.
# T1: His-SMAD4^R361H, Q13485
# T1 chain: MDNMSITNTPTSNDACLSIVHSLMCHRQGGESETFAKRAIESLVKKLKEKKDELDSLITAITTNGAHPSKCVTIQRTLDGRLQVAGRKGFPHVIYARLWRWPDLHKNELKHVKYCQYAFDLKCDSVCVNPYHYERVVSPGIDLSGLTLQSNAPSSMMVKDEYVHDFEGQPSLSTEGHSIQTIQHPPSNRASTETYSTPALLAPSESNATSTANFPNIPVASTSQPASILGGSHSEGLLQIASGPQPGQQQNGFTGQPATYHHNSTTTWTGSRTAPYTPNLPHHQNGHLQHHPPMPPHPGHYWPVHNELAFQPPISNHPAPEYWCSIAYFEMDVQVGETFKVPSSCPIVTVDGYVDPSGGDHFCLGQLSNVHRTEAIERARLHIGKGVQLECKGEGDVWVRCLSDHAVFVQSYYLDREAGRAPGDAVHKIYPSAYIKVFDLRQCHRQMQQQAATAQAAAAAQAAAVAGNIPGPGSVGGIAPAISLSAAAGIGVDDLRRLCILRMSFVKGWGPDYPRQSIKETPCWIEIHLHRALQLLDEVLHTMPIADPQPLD
# T2: His-SMAD4^WT, Q13485
# T2 chain: T1 chain with H361R
# B1: Flag-SMAD3, P84022 1-425 (natural protein)
# chain: MSSILPFTPPIVKRLLGWKKGEQNGQEEKWCEKAVKSLVKKLKKTGQLDELEKAITTQNVNTKCITIPRSLDGRLQVSHRKGLPHVIYCRLWRWPDLHSHHELRAMELCEFAFNMKKDEVCVNPYHYQRVETPVLPPVLVPRHTEIPAEFPPLDDYSHSIPENTNFPAGIEPQSNIPETPPPGYLSEDGETSDHQMNHSMDAGSPNLSPNPMSPAHNNLDLQPVTYCEPAFWCSISYYELNQRVGETFHASQPSMTVDGFTDPSNSERFCLGLLSNVNRNAAVELTRRHIGRGVRLYYIGGEVFAECLSDSAIFVQSPNCNQRYGWHPATVCKIPPGCNLKIFNNQEFAALLAQSVNQGFEAVYQLTRMCTIRMSFVKGWGAEYRRQTVTSTPCWIELHLNGPLQWLDKVLTQMGSPSIRCSSVS
# Key:
# His-SMAD4^R361H, Q13485 = molecular target: T1, His-SMAD4^R361H, Q13485; assay: AlphaScreen or HTRF; settings: remark: other sources report otherwise
# His-SMAD4^WT, Q13485 = molecular target: T2, His-SMAD4^WT, Q13485; assay: AlphaScreen or HTRF; settings: remark: other sources report otherwise
binder,measurement,setting,value
B1,EC50 of Go-6983 in enhancing the PPI,"His-SMAD4^R361H, Q13485",15.2 µM
same,EC50 of PKC-412 in enhancing the PPI,"His-SMAD4^R361H, Q13485",> 100 µM
same,EC50 of Ro-31-8220 in enhancing the PPI,"His-SMAD4^R361H, Q13485",3.9 µM
same,EC50 of UCN-1028c in enhancing the PPI,"His-SMAD4^R361H, Q13485",> 100 µM
same,signal-to-background ratio (TR-FRET),"His-SMAD4^R361H, Q13485",10 fold
same,signal-to-background ratio (TR-FRET),"His-SMAD4^WT, Q13485",30 fold
